*1 amine or outer side, *2 acyl side, *3 side chain or, on linkers, in order; H or OH if unused. Where no end group is shown, it is not given here. Side-chain parts run from the residue outwards. [ ]: non-standard residue; d: D form. The star is where a group is joined. (mPEG)2 40 kDa = C3 = Cys(mPEG)240kDa, branched (mPEG)2, 40 kDa; γGlu = O=C(O)[C@H](CCC(=O)[*:2])N[*:1]; Palmitoyl = CCCCCCCCCCCCCCCC(=O)*; Aib = CC(C)(N)C(=O)O

Assay in all cases: cell-based or functional assay
The target of assay [1] is T1, human GLP-1 receptor (human, UniProt P43220 24-463).
For assay [2], the target named is T2, human glucagon receptor (human, UniProt P47871 26-477).
T2 sequence (P47871 26-477): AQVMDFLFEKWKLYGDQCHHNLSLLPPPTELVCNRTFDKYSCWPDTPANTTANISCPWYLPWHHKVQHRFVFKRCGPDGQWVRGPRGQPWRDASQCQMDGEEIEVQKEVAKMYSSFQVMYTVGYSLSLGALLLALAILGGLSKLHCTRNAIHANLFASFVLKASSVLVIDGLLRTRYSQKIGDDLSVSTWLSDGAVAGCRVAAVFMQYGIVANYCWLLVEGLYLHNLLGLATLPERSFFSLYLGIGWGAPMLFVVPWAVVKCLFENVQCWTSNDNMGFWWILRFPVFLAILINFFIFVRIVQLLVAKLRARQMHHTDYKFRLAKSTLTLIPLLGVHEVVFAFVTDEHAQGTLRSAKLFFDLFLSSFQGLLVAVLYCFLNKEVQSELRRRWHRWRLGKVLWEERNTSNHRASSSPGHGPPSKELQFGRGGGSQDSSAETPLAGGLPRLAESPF
The target in assay [3] is T1, human GLP-1 receptor. This is another data set of the same source.
Assay [4] has as its target T2, human glucagon receptor. This is another data set of the same source.

B1: MM102 (peptide)
peptide: H[dS]QGTFTSDK([γGlu-γGlu-Palmitoyl])SKYLD[Aib]RRAQDFVQWLMNTE[γGlu]-NH2
modifications: N-terminus assumed
SMILES: CCCCCCCCCCCCCCCC(=O)N[C@@H](CCC(=O)N[C@@H](CCC(=O)NCCCC[C@H](NC(=O)[C@H](CC(=O)O)NC(=O)[C@H](CO)NC(=O)[C@@H](NC(=O)[C@H](Cc1ccccc1)NC(=O)[C@@H](NC(=O)CNC(=O)[C@H](CCC(N)=O)NC(=O)[C@@H](CO)NC(=O)[C@@H](N)Cc1c[nH]cn1)[C@@H](C)O)[C@@H](C)O)C(=O)N[C@@H](CO)C(=O)N[C@@H](CCCCN)C(=O)N[C@@H](Cc1ccc(O)cc1)C(=O)N[C@@H](CC(C)C)C(=O)N[C@@H](CC(=O)O)C(=O)NC(C)(C)C(=O)N[C@@H](CCCNC(=N)N)C(=O)N[C@@H](CCCNC(=N)N)C(=O)N[C@@H](C)C(=O)N[C@@H](CCC(N)=O)C(=O)N[C@@H](CC(=O)O)C(=O)N[C@@H](Cc1ccccc1)C(=O)N[C@H](C(=O)N[C@@H](CCC(N)=O)C(=O)N[C@@H](Cc1c[nH]c2ccccc12)C(=O)N[C@@H](CC(C)C)C(=O)N[C@@H](CCSC)C(=O)N[C@@H](CC(N)=O)C(=O)N[C@H](C(=O)N[C@@H](CCC(=O)O)C(=O)N[C@@H](CCC(N)=O)C(=O)O)[C@@H](C)O)C(C)C)C(=O)O)C(=O)O
Regarding B1, the “hGLP-1R EC50” value in the assay with human GLP-1 receptor [1] was 0.034 nM. The “hGCGR EC50” value with human glucagon receptor [2] came to 0.003 nM.

B2: MM103 (peptide)
peptide: H[dS]QGTFTSDK([γGlu-γGlu-Palmitoyl])SKYLD[Aib]RRAQDFVQWLMNT[dK][γGlu]-NH2
modifications: N-terminus assumed
SMILES: CCCCCCCCCCCCCCCC(=O)N[C@@H](CCC(=O)N[C@@H](CCC(=O)NCCCC[C@H](NC(=O)[C@H](CC(=O)O)NC(=O)[C@H](CO)NC(=O)[C@@H](NC(=O)[C@H](Cc1ccccc1)NC(=O)[C@@H](NC(=O)CNC(=O)[C@H](CCC(N)=O)NC(=O)[C@@H](CO)NC(=O)[C@@H](N)Cc1c[nH]cn1)[C@@H](C)O)[C@@H](C)O)C(=O)N[C@@H](CO)C(=O)N[C@@H](CCCCN)C(=O)N[C@@H](Cc1ccc(O)cc1)C(=O)N[C@@H](CC(C)C)C(=O)N[C@@H](CC(=O)O)C(=O)NC(C)(C)C(=O)N[C@@H](CCCNC(=N)N)C(=O)N[C@@H](CCCNC(=N)N)C(=O)N[C@@H](C)C(=O)N[C@@H](CCC(N)=O)C(=O)N[C@@H](CC(=O)O)C(=O)N[C@@H](Cc1ccccc1)C(=O)N[C@H](C(=O)N[C@@H](CCC(N)=O)C(=O)N[C@@H](Cc1c[nH]c2ccccc12)C(=O)N[C@@H](CC(C)C)C(=O)N[C@@H](CCSC)C(=O)N[C@@H](CC(N)=O)C(=O)N[C@H](C(=O)N[C@H](CCCCN)C(=O)N[C@@H](CCC(N)=O)C(=O)O)[C@@H](C)O)C(C)C)C(=O)O)C(=O)O
On to B2, for which, in the assay with human GLP-1 receptor [1], the “hGLP-1R EC50” value worked out at 0.026 nM. The “hGCGR EC50” value with human glucagon receptor [2] was determined as 0.005 nM.

As to H[Aib]QGTFTSDYSKYLDSRRAC((mPEG)2 40 kDa)DFVQWLMNTKRNRNNIA-NH2 [OXM103], in the assay with human GLP-1 receptor [3], the “GLP-1R EC50” value amounted to 6.2 nM. In the assay with human glucagon receptor [4], the “% Activation of GCGR” value amounted to 75% and the “GCGR EC50” value worked out at 203 nM.

B3: OXM107 (peptide)
peptide: HXQGTFTSDYSKYLDSRRAQDFVCWLMNTKRNRNNIA
modifications: Aib at position 2; C3 = Cys(mPEG)240kDa (40 kDa) at position 24; methionine sulfoxide at position 27; C-terminal amide
B3: in the assay with human GLP-1 receptor [3], the “GLP-1R EC50” value was 29.7 nM. For the same molecule, in the assay with human glucagon receptor [4], the “% Activation of GCGR” value came to 30% and the “GCGR EC50” value was greater than 1000 nM.

With H[Aib]QGTFTSDYSKYLDSRRAQC((mPEG)2 40 kDa)FVQWLMNTKRNRNNIA-NH2 [OXM105], the “GLP-1R EC50” value with human GLP-1 receptor [3] came out at 28.5 nM. Besides, in the assay with human glucagon receptor [4], the “% Activation of GCGR” value turned out to be 21% and the “GCGR EC50” value is 648 nM.
